Laboratory results: the supplement of paper PMC10567573

B1: NET1 (parent)
chain: RVRPLARVTSLANLISPVRNGAVR
B2: NECAB1 (parent)
chain: FSPNSPQFNVSGPGLLEEDNQWMT

Variants of: B1
Assay: protein stability index of a GFP-peptide fusion (GPS, HEK-293T) (PSI 1-6); higher = more stable
Settings: c terminus: a fixed tail appended
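Also: lentivirally expressed fusions sorted by FACS into six bins by GFP to DsRed ratio, PSI derived from sequencing read proportions per bin multiplied by bin number.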

In order of falling protein stability index:
1. RVRPLARVTSLANLISPVRNGAKR  3.99
2. RVRPLARVTSLANLISPVRNGARR  3.89
3. RVRPLARVTSLANLISPVRNGAPR  3.86
4. RVRPLARVTSLANLISPVRNGAVE  3.8
5. RVRPLARVTSLANLISPVRNGAGR  3.79
6. RVRPLARVTSLANLISPVRQGAVR  3.75
7. RVRPLARVTSLANLISPVRNGAQR  3.73
8. RVRPLARVTSLANLISPVRNGQVR  3.69
9. RVRPLARVTSLANLISPVRNGANR  3.68
10. RVRPLARVTSLANLISPVRNAAVR  3.62
11. RVRPLARVTSLANLISPVVNGAVR  3.6
12. RVRPLARVTSLANLISPVRNSAVR  3.56
13. RVRPLARVTSLANLISPVRNPAVR  3.52
14. RVRPLARVTSLANLISPVRNGEVR  3.52
15. RVRPLARVTSLANLISPVRNGPVR  3.49
16. RVRPLARVTSLANLISPVRNGAVK  3.47
17. RVRPLARVTSLANLISPVRNGTVR  3.46
18. RVRPLARVTSLANLISPVRNGAHR  3.43
19. RVRPLARVTSLANLISPVRNGASR  3.4
20. RVRPLARVTSLANLISPVRNGAVD  3.37
21. RVRPLARVTSLANLISPVRNGAVQ  3.37
22. RVRPLARVTSLANLISPVRNGSVR  3.37
23. RVRPLARVTSLANLISPVRNGKVR  3.36
24. RVRPLARVTSLANLISPVRNGRVR  3.36
25. RVRPLARVTSLANLISPVRNTAVR  3.35
26. RVRPLARVTSLANLISPVRNGDVR  3.35
27. RVRPLARVTSLANLISPVREGAVR  3.33
28. RVRPLARVTSLANLISPVRNGADR  3.3
29. RVRPLARVTSLANLISPVRHGAVR  3.3
30. RVRPLARVTSLANLISPVRLGAVR  3.29
31. RVRPLARVTSLANLISPVRNGAMR  3.22
32. RVRPLARVTSLANLISPVRNGAVC  3.21
33. RVRPLARVTSLANLISPVRDGAVR  3.2
34. RVRPLARVTSLANLISPVRNGGVR  3.18
35. RVRPLARVTSLANLISPVRNGATR  3.13
36. RVRPLARVTSLANLISPVRNQAVR  3.12
37. RVRPLARVTSLANLISPVRNEAVR  3.08
38. RVRPLARVTSLANLISPVRNGAAR  3.08
39. RVRPLARVTSLANLISPVRNGHVR  3.03
40. RVRPLARVTSLANLISPVRNGNVR  3.02
41. RVRPLARVTSLANLISPVRNGAVA  2.98
42. RVRPLARVTSLANLISPVRGGAVR  2.96
43. RVRPLARVTSLANLISPVRPGAVR  2.94
44. RVRPLARVTSLANLISPVRNGAVG  2.93
45. RVRPLARVTSLANLISPVRNGAVP  2.93
46. RVRPLARVTSLANLISPVRNGCVR  2.92
47. RVRPLARVTSLANLISPVRAGAVR  2.91
48. RVRPLARVTSLANLISPVRNGAVN  2.91
49. RVRPLARVTSLANLISPVRNGAYR  2.9
50. RVRPLARVTSLANLISPVRNNAVR  2.88
51. RVRPLARVTSLANLISPVRNIAVR  2.87
52. RVRPLARVTSLANLISPVRNHAVR  2.85
53. RVRPLARVTSLANLISPVRNYAVR  2.82
54. RVRPLARVTSLANLISPVRNGAER  2.79
55. RVRPLARVTSLANLISPVRTGAVR  2.79
56. RVRPLARVTSLANLISPVRNGIVR  2.76
57. RVRPLARVTSLANLISPVRNCAVR  2.75
58. RVRPLARVTSLANLISPVRNGVVR  2.75
59. RVRPLARVTSLANLISPVRSGAVR  2.74
60. RVRPLARVTSLANLISPVRNGAVS  2.74
61. RVRPLARVTSLANLISPVRNGACR  2.72
62. RVRPLARVTSLANLISPVRCGAVR  2.72
63. RVRPLARVTSLANLISPVRNKAVR  2.71
64. RVRPLARVTSLANLISPVRNGAIR  2.7
65. RVRPLARVTSLANLISPVRNVAVR  2.69
66. RVRPLARVTSLANLISPVRNMAVR  2.69
67. RVRPLARVTSLANLISPVRNLAVR  2.68
68. RVRPLARVTSLANLISPVRNGALR  2.66
69. RVRPLARVTSLANLISPVRIGAVR  2.66
70. RVRPLARVTSLANLISPVRVGAVR  2.64
71. RVRPLARVTSLANLISPVRNGAVV  2.63
72. RVRPLARVTSLANLISPVRNGLVR  2.62
73. RVRPLARVTSLANLISPVRRGAVR  2.57
74. RVRPLARVTSLANLISPVRNDAVR  2.55
75. RVRPLARVTSLANLISPVRMGAVR  2.54
76. RVRPLARVTSLANLISPVRNGAVI  2.54
77. RVRPLARVTSLANLISPVRNGYVR  2.54
78. RVRPLARVTSLANLISPVRYGAVR  2.52
79. RVRPLARVTSLANLISPVRKGAVR  2.49
80. RVRPLARVTSLANLISPVRNGAVF  2.44
81. RVRPLARVTSLANLISPVRNGAVW  2.44
82. RVRPLARVTSLANLISPVRNRAVR  2.42
83. RVRPLARVTSLANLISPVRNFAVR  2.42
84. RVRPLARVTSLANLISPVRNGAWR  2.4
85. RVRPLARVTSLANLISPVRNGFVR  2.4
86. RVRPLARVTSLANLISPVRNGAVT  2.39
87. RVRPLARVTSLANLISPVRNGAVH  2.38
88. RVRPLARVTSLANLISPVRWGAVR  2.33
89. RVRPLARVTSLANLISPVRNWAVR  2.31
90. RVRPLARVTSLANLISPVRNGAFR  2.26
91. RVRPLARVTSLANLISPVRFGAVR  2.26
92. RVRPLARVTSLANLISPVRNGMVR  2.25
93. RVRPLARVTSLANLISPVRNGAVL  2.2
94. RVRPLARVTSLANLISPVYNGAVR  2.19
95. RVRPLARVTSLANLISPVRNGAVM  2.19
96. RVRPLARVTSLANLISPVRNGAVY  1.88
97. RVRPLARVTSLANLISPVRNGWVR  1.86
98. RVRPLARVTSLANLISPVWNGAVR  1.82

Variants of: B2
Assay: as above
Settings: c terminus: a fixed tail appended

In order of rising protein stability index:
1. FIPNSPQFNVSGPGLLEEDNQWMT  1.76
2. FAPNSPQFNVSGPGLLEEDNQWMT  1.79
3. FSPNFPQFNVSGPGLLEEDNQWMT  2
4. FSWNSPQFNVSGPGLLEEDNQWMT  2.04
5. FGPNSPQFNVSGPGLLEEDNQWMT  2.08
6. FHPNSPQFNVSGPGLLEEDNQWMT  2.17
7. FSGNSPQFNVSGPGLLEEDNQWMT  2.2
8. FTPNSPQFNVSGPGLLEEDNQWMT  2.23
9. FSDNSPQFNVSGPGLLEEDNQWMT  2.24
10. FSPWSPQFNVSGPGLLEEDNQWMT  2.25
11. FSPCSPQFNVSGPGLLEEDNQWMT  2.26
12. FSPYSPQFNVSGPGLLEEDNQWMT  2.33
13. FSCNSPQFNVSGPGLLEEDNQWMT  2.33
14. FSPFSPQFNVSGPGLLEEDNQWMT  2.4
15. FSPMSPQFNVSGPGLLEEDNQWMT  2.45
16. FPPNSPQFNVSGPGLLEEDNQWMT  2.47
17. FSPHSPQFNVSGPGLLEEDNQWMT  2.53
18. FSPGSPQFNVSGPGLLEEDNQWMT  2.53
19. FWPNSPQFNVSGPGLLEEDNQWMT  2.58
20. FSFNSPQFNVSGPGLLEEDNQWMT  2.59
21. FSYNSPQFNVSGPGLLEEDNQWMT  2.62
22. FCPNSPQFNVSGPGLLEEDNQWMT  2.63
23. FSPLSPQFNVSGPGLLEEDNQWMT  2.64
24. FVPNSPQFNVSGPGLLEEDNQWMT  2.66
25. FSPISPQFNVSGPGLLEEDNQWMT  2.67
26. FSSNSPQFNVSGPGLLEEDNQWMT  2.68
27. FSPNGPQFNVSGPGLLEEDNQWMT  2.72
28. FSPNAPQFNVSGPGLLEEDNQWMT  2.72
29. FSPNIPQFNVSGPGLLEEDNQWMT  2.75
30. FSNNSPQFNVSGPGLLEEDNQWMT  2.76
31. FSPQSPQFNVSGPGLLEEDNQWMT  2.8
32. FSPNKPQFNVSGPGLLEEDNQWMT  2.82
33. FSPRSPQFNVSGPGLLEEDNQWMT  2.82
34. FSLNSPQFNVSGPGLLEEDNQWMT  2.87
35. FSRNSPQFNVSGPGLLEEDNQWMT  2.88
36. FSVNSPQFNVSGPGLLEEDNQWMT  2.88
37. FSPSSPQFNVSGPGLLEEDNQWMT  2.89
38. FSPNLPQFNVSGPGLLEEDNQWMT  2.93
39. FQPNSPQFNVSGPGLLEEDNQWMT  2.95
40. FSPKSPQFNVSGPGLLEEDNQWMT  2.98
41. FSPNCPQFNVSGPGLLEEDNQWMT  3
42. FSPNNPQFNVSGPGLLEEDNQWMT  3.03
43. FSPVSPQFNVSGPGLLEEDNQWMT  3.03
44. FSTNSPQFNVSGPGLLEEDNQWMT  3.05
45. FFPNSPQFNVSGPGLLEEDNQWMT  3.06
46. FSKNSPQFNVSGPGLLEEDNQWMT  3.11
47. CSPNSPQFNVSGPGLLEEDNQWMT  3.13
48. FSPNHPQFNVSGPGLLEEDNQWMT  3.16
49. FSHNSPQFNVSGPGLLEEDNQWMT  3.17
50. FSPTSPQFNVSGPGLLEEDNQWMT  3.2
51. FSMNSPQFNVSGPGLLEEDNQWMT  3.22
52. FSPASPQFNVSGPGLLEEDNQWMT  3.25
53. YSPNSPQFNVSGPGLLEEDNQWMT  3.25
54. FSQNSPQFNVSGPGLLEEDNQWMT  3.26
55. FSANSPQFNVSGPGLLEEDNQWMT  3.26
56. FNPNSPQFNVSGPGLLEEDNQWMT  3.28
57. FSINSPQFNVSGPGLLEEDNQWMT  3.33
58. FLPNSPQFNVSGPGLLEEDNQWMT  3.37
59. FMPNSPQFNVSGPGLLEEDNQWMT  3.39
60. FSPNPPQFNVSGPGLLEEDNQWMT  3.39
61. FYPNSPQFNVSGPGLLEEDNQWMT  3.49
62. FSPPSPQFNVSGPGLLEEDNQWMT  3.53
63. FSPESPQFNVSGPGLLEEDNQWMT  3.59
64. FKPNSPQFNVSGPGLLEEDNQWMT  3.63
65. FRPNSPQFNVSGPGLLEEDNQWMT  3.65
66. FSPNMPQFNVSGPGLLEEDNQWMT  3.66
67. FSPNQPQFNVSGPGLLEEDNQWMT  3.7
68. FSENSPQFNVSGPGLLEEDNQWMT  3.71
69. FSPDSPQFNVSGPGLLEEDNQWMT  3.79
70. FSPNEPQFNVSGPGLLEEDNQWMT  3.82
71. WSPNSPQFNVSGPGLLEEDNQWMT  3.85
72. ASPNSPQFNVSGPGLLEEDNQWMT  4.01
73. FSPNDPQFNVSGPGLLEEDNQWMT  4.04
74. TSPNSPQFNVSGPGLLEEDNQWMT  4.11
75. FDPNSPQFNVSGPGLLEEDNQWMT  4.21
76. HSPNSPQFNVSGPGLLEEDNQWMT  4.23
77. RSPNSPQFNVSGPGLLEEDNQWMT  4.33
78. ISPNSPQFNVSGPGLLEEDNQWMT  4.33
79. VSPNSPQFNVSGPGLLEEDNQWMT  4.34
80. GSPNSPQFNVSGPGLLEEDNQWMT  4.4
81. KSPNSPQFNVSGPGLLEEDNQWMT  4.43
82. PSPNSPQFNVSGPGLLEEDNQWMT  4.51
83. DSPNSPQFNVSGPGLLEEDNQWMT  4.53
84. LSPNSPQFNVSGPGLLEEDNQWMT  4.55
85. FEPNSPQFNVSGPGLLEEDNQWMT  4.58
86. NSPNSPQFNVSGPGLLEEDNQWMT  4.63
87. MSPNSPQFNVSGPGLLEEDNQWMT  4.7
88. QSPNSPQFNVSGPGLLEEDNQWMT  4.7
89. SSPNSPQFNVSGPGLLEEDNQWMT  4.75
90. ESPNSPQFNVSGPGLLEEDNQWMT  4.79
